± gives the standard error. Fewer inactive variants are shown than the library holds.
B1: glmS ribozyme (parent)
chain: AUAAAAGCGCCAGAACUACAGAAAUGUAGUUGACGAGGAGGAGGUUUAUCGAAUUUUCGGCGGAUGCCUCCAAA

Legend:
Conditions in all cases: with glucosamine-6-phosphate
[1] = variants of: B1; experiment: self-cleavage kobs at 640 uM GlcN6P; higher = faster cleavage; RNA array
Method in brief: (§1)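 Barcoded glmS ribozyme variants on sequenced MiSeq chips were transcribed in situ by E. coli RNA polymerase and tracked through a hybridised Cy3 probe at 37 °C. Glucosamine-6-phosphate (40 μM to 10 mM) in HEPES/KCl/Mg(OAc)2 buffer was flowed in, and tiles were imaged over ~14 h. Signals were normalised to baseline and to non-cleaving reference variants; per-tile medians were fit to one- or two-exponential decays to give kobs. kcat and KM came from weighted Michaelis–Menten fits across concentrations.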

[2] = variants of: B1; experiment: self-cleavage kobs at 10000 uM GlcN6P; higher = faster cleavage; RNA array
Method in brief: as §1

[3] = variants of: B1; experiment: self-cleavage kobs at 2500 uM GlcN6P; higher = faster cleavage; RNA array
Method in brief: as §1

Row | Variant | self-cleavage kobs at 640 uM GlcN6P [1] [s⁻¹] | self-cleavage kobs at 10000 uM GlcN6P [2] [s⁻¹] | self-cleavage kobs at 2500 uM GlcN6P [3] [s⁻¹]
1 | AUAAAAGCGCCACAACUACAGAAAUGUAGUUGACGAGGAUGAGGUUUAUCGAAUUUUCGUCGGAUGCCUCCAAA | < 1e-05 | < 1e-05 | 
2 | AUAAAAGCGCUAGAACUACAGAAAUGUACUAGAAGAGGAGGAGGUUUAUCGCAUUUUCGUCGGAUGCCUCCAAA | < 1e-05 |  | < 1e-05
3 | AUAAAAGCGCCAGAACUACAGAAAUGUAGUUGACGAGGAGGAGGUUUAUAGAAUUUUUGGCGGAUGGCUCCAAA | 8.03e-05 ± 3.9e-05 |  | 
4 | AUAAAAUCGCCAGAACUACAGAAAUGUAGUUGACCAGGUGGAGGUUUAUCGAAUUUUCGGCGGACGCCUCCAAA | < 1e-05 |  | 
5 | AUAAAAGCGCCAGAACUACAGAAAUGUAGUUGACGAGGAGGAGCUUUAUGGAAUUUUCGGCUGAUGCCUCCAAA | < 1e-05 |  | 
6 | AUAAAAGCGCCAGAACUACAGAAAUGUAGUUUACGAGGAGGAGGUGUAUGGAAUUUUCGGCGGAUGCCUCCAAA | 0.000215 ± 4.7e-05 |  | 9.4e-05 ± 3.4e-05
7 | AUAAAAGCGCCAGAACUACAGAAAUGUAAUUGACGAGGAGGAGGUUUAUCGAGUUUUCGGCGGAUGCGUCCAAA | 7.36e-05 ± 2.4e-05 |  | 7.42e-05 ± 2e-05
8 | AUAAAAGCGCCAGAACUACAGAAAUGUAGUUGACGAGGAGGAGGUUUAUCGUAUUUUCGGCGGAUGCGUCCAAA | 0.000375 ± 0.00018 | 1.85e-05 ± 7.8e-06 | 4.62e-05 ± 8.4e-06
9 | AUAAAAGCGCAAGAACUACAGAAAUGUAGUCGACGAGGAGGCGGUUUAUCGAAUUUUCGGCGGAUGCCUCCAAA | < 1e-05 |  | 
10 | AUAAAAGCGCCAGACCUACAGAAAUGUAGUUGACGAGGAGGAGGUUUAUCGAAUUUUGGGCGGAUGCCUACAAA | 5.23e-05 ± 1.5e-05 |  | 4e-05 ± 2e-05
11 | AUAAAAGAGCCUGAUCUACAGAAAUGUAGUUGACGAGGAGGAGGUUUAUCGAAUUUUCGGCGGAUGCCUACAAA | < 1e-05 |  | 
12 | AUAAAAGCGCCAGAACUACAGAAAUGUAGUUGCCGAGGAGGAGGGUUAUCGAAUCUUCGGCGGAUGCCUCCAAA | < 1e-05 |  | 
13 | AUAAAAGCGCCAGACCUACAGAAAUGUAGUUGACGAGGAGGAGGUUUAUUAAAUUUUCGGCUGAUGCCCCCAAA | 3.56e-05 ± 1.7e-05 |  | 
14 | AUAAAAGCGCCAGAACUACAGAAAUGUAGUUGACGUGGAGGAGGUUUAUCGAAUUUUCGGCGGACGCCUGCAAA | 0.000173 ± 7.9e-05 |  | 
15 | AUAAAAGCGCCAGAACUACAGAAAUGUAGUUGACGAGGAGGAGGUUUAUCGAAAGUUCGGCGGAUGUCUCCAAA | 0.000411 ± 0.00015 |  | 0.000903 ± 0.00028
16 | AUAAAAGCACCAGAAUUACAGAAAUGUAGUUGACGAGGAGGAGGUUUAUCGAAUUUUUGGCGGAUGCCUCCAAA | < 1e-05 |  | 
17 | AUAAAAGCGCCAGAACUAUAGAAAUGUAGUUGACGAGGAGGAGGUAUAUCGAAUUUUCGGCGGAUGCCUCCAAA | 0.0011 ± 0.00031 |  | 0.0021 ± 0.00075
18 | AUAAAAGCUCCAGAACUACAGAAAUGUAGUUGACGAGGAGGAGGUUGAUCGAAUUUUCGGCGGAUGCAUCCAAA | < 1e-05 |  | 
19 | AUAAAAGCGCCAGAGCUACAGAAAUGUAGAUGACGAGGUGGAGGUUUAUCGAAUUUUCGGCGGAUGCCUCCAAA | 0.00404 ± 0.0016 | 0.0247 ± 0.0076 | 0.00871 ± 0.0024
20 | AUAAACGCGCCAGAACUACAGAAAUGUAGUUGACGAGGAGGAGGUUUAUCGAAUGUUCGGCGGAGGUCUCCAAA | < 1e-05 |  | 
21 | AUAAAAGCGCCAGAACUACAGAAAUGUAGUUGACGAGGGGAAGGUUUACCGAAUUUUCGGCGGAUGCCUCCAAA | < 1e-05 |  | 
22 | AUAAAAGCGCCAGAACUACAGAAAUGUAGUUGACGAGGAGGAGAUUUAUCGAAUUUUCGGAGGAUACCUCCAAA | < 1e-05 |  | 
23 | AUAAAAGCGCCAGAACUACAGAAAUGUAGUUAACGAGGGGGAGGUCUAUCGAAUUUUCGGCGGAUGCCUCCAAA | 0.000174 ± 4.5e-05 |  | 0.000355 ± 0.00011
24 | AUAAAAGCGCCAGAACUACAGAAAUGUAGUUGACGAGGAGGAGGUUUCUCGAAUUUUCGCCGGAUGCCUCGAAA | < 1e-05 |  | < 1e-05

Reference: the supplement of paper PMC7125110
